Entries after “also recorded” stand apart in the source; their conditions may differ.
Columns and labels:
Assay type in all cases: cell-based, human
PEC derived from hESC = assay: Flow cytometry analysis of PEC derived from hESC (CHGA, NKX6.1, PDX1 sub-populations)
Method: (§1) So, Activin levels less than about 25 ng/mL are acceptable for maintaining cell mass and yield. Applicant then performed flow cytometry analysis on these cell cultures to determine whether Activin at low levels during stages 3 and 4 had any effect on cell aggregate composition; see Table 14. […] Advantageously, the PDX1 only and Triple Negative sub-populations are reduced as compared to the control, particularly when Activin is used in stages 3 and 4.
To determine the cell composition of the PEC population with the combination of Activin, Heregulin and Wnt during stage 3, flow cytometry was performed after stage 4 and the PEC cellular composition is shown in Table 14. […] Data from flow cytometry supports and is consistent with data from QPCR that the combination of the three factors (AHW) in general delayed or suppressed differentiation of cells committed to the endocrine lineage (CHGA+) in PEC without affecting the production of the non-endocrine (CHGA−) sub-population. The delayed expression of these genes in vitro is consistent with their on-set (or delay) in in vivo mammalian pancreatic development, whereby NGN3 expression in endocrine differentiation occurs after the on-set of PDX1 and NKX6.1 expression in the non-endocrine (CHGA−) sub-population. Additionally, there was no compromise in the PEC mass and yield. […]
Undifferentiated human ESC were expanded and differentiated substantially as described above in Table 17 Protocol #1 for stages 1-4 and in Schulz et al. (2012) supra, except that during the three (3) days of stage 3, 4 different conditions were compared: (i) 0 noggin (“no noggin”) for all 3 days; (ii) 1 day of Noggin at 50 ng/mL and 2 days with no additional Noggin; (iii) 2 days of Noggin at 50 ng/mL and 1 day with no additional noggin; and (iv) 3 days of Noggin at 50 ng/mL. After stage 3, each of these conditions (i) through (iv) then received the standard stage 4 differentiation media cocktail according to Table 8 and Table 17, but without additional Noggin. […] Moreover, with each additional day of noggin treatment, fewer non-endocrine multipotent pancreatic progenitor sub-populations were produced (compare 90.6% with no noggin to 64.6% with 3 days of noggin treatment).

[1] = test system: NGN3, NKX2.2, NKX6.1, PDX1 expression; assay: Quantitative PCR of relative gene expression in PEC cultures (NGN3, NKX2.2, NKX6.1, PDX1)
Method: The progression of pluripotent cells to various multipotent and/or differentiated cells can be monitored by determining the relative expression of genes, or gene markers, characteristic of a specific cell, as compared to the expression of a second or control gene, e.g., housekeeping genes. In some processes, the expression of certain markers is determined by detecting the presence or absence of the marker. Alternatively, the expression of certain markers can be determined by measuring the level at which the marker is present in the cells of the cell culture or cell population. In such processes, the measurement of marker expression can be qualitative or quantitative. One method of quantitating the expression of markers that are produced by marker genes is through the use of quantitative PCR (Q-PCR). Methods of performing Q-PCR are well known in the art. Other methods which are known in the art can also be used to quantitate marker gene expression. For example, the expression of a marker gene product can be detected by using antibodies specific for the marker gene product of interest.
(§2) Various growth factors were explored for their ability to suppress genes such as NGN3 during stages 3 and 4. One candidate growth factor was Activin which has diverse functions in stem cell expansion and differentiation. For example, at low levels (e.g. 10 ng/mL), Activin helps maintain pluripotent stem cell pluripotency and cell proliferation. At higher levels (e.g. 100 ng/mL) Activin acts as a differentiation growth factor responsible for definitive endoderm production at stage 1 (see e.g., Table 8). To test its effect on repressing cells committed to the endocrine lineage (CHGA+) during PEC formation, Applicant first tested Activin at a mid-level concentration of about 50 ng/mL with standard adherent differentiation.
Quantitative PCR analysis was performed to determine the relative levels of gene expression at days 8, 10 and 12 of differentiation with the above combinations of Activin and Heregulin (FIG. 13). […]

[2] = test system: hES-derived cell aggregates; assay: Cell aggregate size / cell mass in suspension culture (imaging)
Method: Preliminary studies were performed using Heregulin and FGF. In certain of these studies, Rho-kinase inhibitor, Y-27632, was included. […] An increase in cell aggregate size is advantageous in that it results in higher cell mass for later implantation and testing for function in animals.
as §2, §1
Pluripotent stem cells were differentiated using the standard protocol according to Table 8, except during stage 3, Activin was included at 10 ng/mL or 20 ng/mL in combination with Heregulin at 2 ng/mL or 10 ng/mL; and during stage 4, Activin was reduced to 5 ng/mL with Heregulin at 1 ng/mL for two days then at 10 ng/mL thereafter. […] Increasing Activin to 20 ng/mL with Heregulin remaining the same at 2 ng/mL exacerbated the cell loss (compare FIGS. 12B and 12C, top panel). […]

[3] = test system: INS, GCG, SST, GHRL, PDX1, NKX6.1, NGN3, ID1 expression; assay: Nanostring mRNA analysis of endocrine cell cultures
[4] = N50-1day: Noggin 50 ng/mL for 1 day of stage 3, after stage 4
[5] = N50-2day: Noggin 50 ng/mL for 2 days of stage 3, after stage 4
[6] = N50-3d: Noggin 50 ng/mL for 3 days of stage 3, after stage 4
[7] = A5 Stg3&4: 5 ng/mL Activin at stages 3 and 4
[8] = A5 Stg3: 5 ng/mL Activin at stage 3
[9] = A10 Stg3: 10 ng/mL Activin at stage 3

B1: noggin: protein that inactivates TGFβ superfamily signaling proteins such as BMP4 (protein, UniProt Q13253 28-232, looked up)
Noggin: QHYLHIRPAPSDNLPLVDLIEHPDPIFDPKEKDLNETLLRSLLGGHYDPGFMATSPPEDRPGGGGGAAGGAEDLAELDQLLRQRPSGAMPSEIKGLEFSEGLAQGKKQRLSKKLRRKLQMWLWSQTFCPVLYAWNDLGSRFWPRYVKVGSCFSKRSCSVPEGMVCKPSKSVHLTVLRWRCQRRGGQRCGWIPIQYPIISECKCSC
non-endocrine multipotent pancreatic progenitor sub-population (PEC derived from hESC; 3 days of Noggin at 50 ng/mL at stage 3, after stage 4): 64.6%
CHGA+ (Endocrine) (PEC derived from hESC; [4]): 11.9%
CHGA−/NKX6.1+ (Non-endocrine) (PEC derived from hESC; [4]): 82%
CHGA+ (Endocrine) (PEC derived from hESC; [5]): 25.1%
CHGA−/NKX6.1+ (Non-endocrine) (PEC derived from hESC; [5]): 71.9%
CHGA+ (Endocrine) (PEC derived from hESC; [6]): 32.5%
CHGA−/NKX6.1+ (Non-endocrine) (PEC derived from hESC; [6]): 64.6%
production of cells committed to the endocrine lineage (CHGA+) (PEC derived from hESC; each additional day of noggin treatment at stage 3): increased levels of production of cells committed to the endocrine lineage (CHGA+)
endocrine lineage marker expression (NKX2.2, INS) ([1]; each additional day of noggin treatment, after stage 4 (day 12)): increased levels of endocrine lineage marker expression

B2: Activin: TGFβ superfamily growth factor (protein, UniProt P08476 311-426, looked up)
Inhibin beta A chain: GLECDGKVNICCKKQFFVSFKDIGWNDWIIAPSGYHANYCEGECPSHIAGTSGSSLSFHSTVINHYRMRGHSPFANLKSCCVPTKLRPMSMLYYDDGQNIIKKDIQNMIVEECGCS
modifications: Inhibin beta A chain
notes: TGFβ superfamily growth factor
CHGA+ (Endocrine) (PEC derived from hESC; [7]): 54.9%
CHGA−/NKX6.1+/PDX1+ (Non-endocrine) (PEC derived from hESC; [7]): 38%
CHGA−/NKX6.1−/PDX1+ (PDX ONLY) (PEC derived from hESC; [7]): 4.1%
CHGA−/NKX6.1−/PDX1− (Residual or Triple Negative) (PEC derived from hESC; [7]): 2%
CHGA+ (Endocrine) (PEC derived from hESC; [8]): 54.7%
CHGA−/NKX6.1+/PDX1+ (Non-endocrine) (PEC derived from hESC; [8]): 31.7%
CHGA−/NKX6.1−/PDX1+ (PDX ONLY) (PEC derived from hESC; [8]): 6.7%
CHGA−/NKX6.1−/PDX1− (Residual or Triple Negative) (PEC derived from hESC; [8]): 5.4%
CHGA+ (Endocrine) (PEC derived from hESC; [9]): 56.2%
CHGA−/NKX6.1+/PDX1+ (Non-endocrine) (PEC derived from hESC; [9]): 33.7%
CHGA−/NKX6.1−/PDX1+ (PDX ONLY) (PEC derived from hESC; [9]): 4.6%
CHGA−/NKX6.1−/PDX1− (Residual or Triple Negative) (PEC derived from hESC; [9]): 3.9%
NGN3 and NKX2.2 expression ([1]; 10 and 20 ng/mL at stage 3 with Heregulin, days 8, 10 and 12): capable of repressing NGN3 and NKX2.2
NGN3, PDX1 and NKX6.1 gene expression in PEC ([1]; about 50 ng/mL, standard adherent differentiation): capable of suppressing NGN3 expression without suppressing PDX1 and NKX6.1 gene expression
cell mass and yield of aggregates ([2]; 5 ng/mL and 10 ng/mL at stages 3 and 4): capable of maintaining cell mass and yield
cell mass of aggregates ([2]; 50 ng/mL during stage 3, cell aggregate suspension culture): the overall cell mass drastically decreased
Activin levels acceptable for maintaining cell mass and yield ([2]; stages 3 and 4, suspension culture): less than 25 ng/mL

B3: BMP: BMP4, member of the bone morphogenetic protein family (protein, UniProt P12644 293-408, looked up)
Bone morphogenetic protein 4: SPKHHSQRARKKNKNCRRHSLYVDFSDVGWNDWIVAPPGYQAFYCHGDCPFPLADHLNSTNHAIVQTLVNSVNSSIPKACCVPTELSAISMLYLDEYDKVVLKNYQEMVVEGCGCR
Insulin and PDX1 expression ([3]; 10 ng/mL at stages 6 and 7 or stage 7 alone): simultaneously increase Insulin and PDX1 expression
pancreatic-lineage gene expression ([3]; agent at days 30-35 during stage 7, analyzed at d35): increases expression of INS, PDX1 and IDI; also recorded: decreased GHRL expression
ID1 gene expression ([3]; stages 6 and 7): up-regulate inhibitor-of-differentiation (ID) gene expression

— patent US10376545B2, “Methods for producing hormone secreting cells in a subject” (ViaCyte, Inc., priority 2013, dated 2019)
